Experimental data as given in the supplement of paper PMC9170038.

Tested on: MS2 coat protein
Assay: apparent KD of MS2 coat protein; designed switch direction (-1 OFF switch, 1 ON switch): 1; higher = weaker reporter binding
Procedure, shortened: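 Designed RNA switches with common flanks were made on Illumina chips by stalled E. coli RNA polymerase. Titration with SNAP-549-labelled MS2 coat protein doubled from 0.7 or 1.5 nM up to 3 µM. Apparent KD is each design's median over clusters after curve-fitting normalised fluorescence.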

[1] = Eterna round: R95, input ligand: FMN 200 uM
[2] = Eterna round: R95, input ligand: microRNA oligo, concentration not stated
[3] = Eterna round: R95, input ligand: none
[4] = input ligand: microRNA oligo, concentration not stated

Sequence | apparent KD of MS2 coat protein [1] [nM] | apparent KD of MS2 coat protein [2] [nM] | apparent KD of MS2 coat protein [3] [nM] | apparent KD of MS2 coat protein (input ligand: FMN 200 uM) [nM] | apparent KD of MS2 coat protein [4] [nM] | apparent KD of MS2 coat protein (input ligand: none) [nM]
UCUUGGUUUUUGCUCGUUUUUUGUGUUGAACAUGAGGAUCACCCAUGUAUUGUACGGUCCGGUUUGAUAGUGGUCCG [JMF 15] (puzzle: Sensor for hsa-mir-208a) | 26.3 | 16.2 | 31.3 |  |  | 
CGUCGUUUGAUAGGAUAUCGCUUUACAUGAGGAUCGCCCAUGUUUACCACGCUGGUUUUUCUUUCCGAGAAGGAUUCUGAUGUU [salish99_SSNG02_r04_027] (Eterna round: R96, puzzle: Same State NG 2) |  |  |  | 28.4 | 10.5 | 4.85
UGGCUCAGACGAGGAUAUAUGUGGUCACAUGAGGAUCACCCAUGUCUCGAGCUUCGGCUCGAGGCAUAGAAGGCGUCUGAGCCU [SSNG2/5-A3] (Eterna round: R96, puzzle: Same State NG 2) |  |  |  | 200 | 7.4 | 148
ACAAGCUUUUCUGCAUUGAAAGGUUGAUAACAUGAGGAUCACCCAUGUUUAUAUGAAAAUAAUGCUCCUCGUCUUAU [JR_SHM208A_Sub094] (puzzle: Sensor for hsa-mir-208a) | 55.4 | 11.4 | 46.9 |  |  | 
ACCCACGACGGAGGAUAUGGGCACUCGGCGGAAUAAACCGCCAUAACAUGAGGAUCACCCAUGUCCCAGAAGGCCGUCGCAAUC [Esdirece] (Eterna round: R96, puzzle: Same State NG 2) |  |  |  | 109 | 404 | 712
GGAGAACAUGAGGAUCACCCAUGUGGAUGAGCGCUAGGAUAUGCGGGAGGGUGAAGAGAAGCAGAAGGAGUAGAUA [JR_SS1_Sub034] (puzzle: Same State 1) | 63.9 | 99.6 | 180 |  |  | 
UUAGAAUUGCAAGGAUAUCUUAUUUAGAUAGUAAGAGAAGGUGCUUUAUAGUUACAUGAGGAUCACCCAUGUAUUUCUUUUUAU [JR_SSNG1_Sub061] (Eterna round: R96, puzzle: Same State NG 1) |  |  |  |  | 16.6 | 
GCUACCAAUGAAGCCAACAUGAGGAUCACCCAUGUAUGUUGGCAGGAUAUCGAUUGCAAAGCGAUCGAGAAGGGCUAAGGUAGC [Mat - Same State NG 3 - JL Mod - D87] (Eterna round: R96, puzzle: Same State NG 3) |  |  |  | 107 | 120 | 177
CCACUCUGCGGAGGAUAUGGGCCUGCCCGGGAUAACGGGCCUAAUACAUGAGGAUCACCCAUGUCCCAGAAGGCCGCUAGAGCC [Xeusza] (Eterna round: R96, puzzle: Same State NG 2) |  |  |  | 18.8 | 92.4 | 139
GAGUGGAGGAGAGGAUAUACAAUGAUAAUCACAGUAGAAGGUUCUAACAUGAGGAUCACCCAUGUAGGACUAUACCUGAGAGAA [Parity 48 - Jieux - Same State NG 1] (Eterna round: R96, puzzle: Same State NG 1) |  |  |  | 12.7 | 9.96 | 16
AGUCCAGCCUGAGCUGGACAAAAGCAUGUACAUGAGGAUCACCCAUGUCAUGUACAAGCUUUUUGCACGUCUUAAAA [Mat - hsa-mir-208a - Mod of JL - D13] (puzzle: Sensor for hsa-mir-208a) | 1120 | 16.4 | 542 |  |  | 
CUCCGGAAGCGAGGAUAUGCAGAGGAUCACCCUGCAGAAGGCGCCCUUGCGAGGAUAUGCAGAGGAUCACCCUGCAGAAGGCGC [pwkr ssNG DX.30] (Eterna round: R96, puzzle: Same State NG 1) |  |  |  | 16.2 | 15.4 | 28
GGACGUCAUCUCACUGAUUAAACAUGAGGAUCACCCAUGUCACAGGAUAUGAGUCCGAUUAGGACUCAGAAGGGUGUGACGUCC [Fiskers NG3ss - 45] (Eterna round: R96, puzzle: Same State NG 3) |  |  |  | 20.7 | 14.6 | 22.9
AACAUGUGGUGUCACAUGAGGAUCACCCAUGUGGUAAAACCUGAGGAUAUAACGAACCAAAUCAAUUAGAAGGUAGGAUCACAA [AK SSNG3-V2-18] (Eterna round: R96, puzzle: Same State NG 3) |  |  |  | 59.7 | 46.5 | 64.2
CCGCAUUCAGCAGGAUAUCUCAACCGGAAGAUGAGAGAAGGGUUGAUUACAUGAGGAUCACCCAUGUCCAAGCAUGCGAGAGCC [Eternabot solution 23] (Eterna round: R96, puzzle: Same State NG 1) |  |  |  | 500 | 754 | 188
AACAAUCUAUCUGAGGAUAUCAUGAAAAAAACAUGAGGAUCACCCAUGUGCAGGAAAACUGCAUAUGAGAAGGCAGAUAGAUUGU [salish99_SS2_r3_002] (Eterna round: R96, puzzle: Same State 2) |  |  |  |  | 480 | 

Sequence | apparent KD of MS2 coat protein [1] [nM] | apparent KD of MS2 coat protein [2] [nM] | apparent KD of MS2 coat protein [3] [nM] | apparent KD of MS2 coat protein (input ligand: FMN 200 uM) [nM] | apparent KD of MS2 coat protein [4] [nM] | apparent KD of MS2 coat protein (input ligand: none) [nM]
UUAAUAAAUCAAGGAUAUCACGUCGUUUAGACGUGAGAAGGUGAUCAUAACAUGAGGAUCACCCAUGUAUUACAUGAAUAUUAA [SSNG1/1-B3] (Eterna round: R96, puzzle: Same State NG 1) |  |  |  | 1180 | 778 | 1570
AGCUAUUAAUCAGGAUAUGGUGACAUGAGGAUCACCCAUGUAUAGAUGAUUAAAUGUGGUCUAAACUAGAAGGGAUUACUAACA [SameState NG2 #54] (Eterna round: R96, puzzle: Same State NG 2) |  |  |  | 156 | 283 | 268
CCGGUACAUGAGGAUCACCCAUGUUGCGGCAGGACAGGAUAUGGGCGAGAAUAUGUAGGCCCAGAAGGGUCAUCAC [Qure] (puzzle: Same State 1) | 24.1 | 42.1 | 38.9 |  |  | 
AUUUAACAAGCUUUUUGCUCGUCUUAUAAACAUGAGGAUCACCCAUGUAAUAGCGUGAGAGUAAUUUUUUAAAUAAU [JMF 96] (puzzle: Sensor for hsa-mir-208a) | 20.3 | 34.3 | 17 |  |  | 
GACAAUCUAUCUGAGGAUAUCAUGAAUAAAACAUGAGGAUCACCCAUGUGCAGGAUAACUGCAAAUGAGAAGGCAGAUAGAUUGU [Mat - Same State 2 - Mod - D7] (puzzle: Same State 2) | 12.3 | 24 | 27.7 |  |  | 
UCUUGGUUUUUGCUCGUUUUUUGUGUUGAACAUGAGGAUCACCCAUGUAUUAUACGGUCCGGUUUAGUAGUGGUCCA [JMF 78] (puzzle: Sensor for hsa-mir-208a) | 86.1 | 83 | 113 |  |  | 
UUUAUAUUCAGAGGAUAUUAAAGUAGUAUAACAUAAGAAGGCUGUUUGUUUUGUAAAGUAAUUCUACAUGAGGAUCACCCAUGU [JR_SSNG1_Sub085] (Eterna round: R96, puzzle: Same State NG 1) |  |  |  |  | 15.8 | 
GGUGCCAAAUAAGCCUACAUGAGGAUCACCCAUGUAUGUAGGUAGGAUAUCGUAUGCAAAGCAUACGAGAAGGGCCUAGGCACC [Mat - Same State NG 3 - JL Mod - D60] (Eterna round: R96, puzzle: Same State NG 3) |  |  |  | 18.1 | 37.3 | 60.7
GUGGUCAGACAUGAGGAUCACCCAUGUGGAAUAAAUAACGGACAGGAUAUAAAAUAUAGGAUAUAUUAGAAGGGUUGAUUGGUG (Eterna round: R96, puzzle: Same State NG 3) |  |  |  | 43.7 | 38.1 | 68.4
UGGUACAUGGGAGGAUAUCUCAUGGUGACAUGAGGAUCACCCAUGUAGUUGGUGCCGAAAGGCUGAGAGAAGGCCCAUGUACCU [JL SSNG1 3.76] (Eterna round: R96, puzzle: Same State NG 2) |  |  |  | 62.9 | 59.3 | 99.9
GGAGCCGAUACUGAGGAUAUUCAUAUUAAAACAUGAGGAUCACCCAUGUAGGCCAGAAGGCCUUGGGAGAAGGCAGAUCGGCUCC [Biseusra - 4] (Eterna round: R96, puzzle: Same State 2) |  |  |  | 21 | 207 | 358
AUAUUUAAUGCAGGAUAUGAUUAACAUGAGGAUCACCCAUGUGGUGUUGUGAGUAAGGAGAGUGAUCAGAAGGGCAUUUUUUUU [JMF's solution 100] (Eterna round: R96, puzzle: Same State NG 2) |  |  |  | 821 | 322 | 467
AACAAUCUAUCUGAGGAUAUCAUGAUAAGAACAUGAGGAUCACCCAUGUGCAGGAAAACUGCAUAUGAGAAGGCAGAUAGAUUGG [Mat - Same State 2 - Mod - D19] (puzzle: Same State 2) | 42.5 | 492 | 472 |  |  | 
UUUGGGUGGCUGGAGGAUAUCCUUGUUGUUACAUGAGGAUCACCCAUGUGCCGCGCGGUUCGCGAGGAGAAGGCUGGCGGCCGUU (puzzle: Same State 2) |  | 169 |  |  |  | 
GUGGUCAGACAUGAGGAUCACCCAUGUGGAAUAAAUAACACACAGGAUAUGGAAUAUAAAAUAUACCAGAAGGGUGGAUUGGUG (Eterna round: R96, puzzle: Same State NG 3) |  |  |  | 157 | 226 | 326
